# Literature values in article PMC7911750.
# Target: NKp30-Ig ECD (Homo sapiens) (UniProt O14931)
# Sequence of UniProt O14931 (O14931 19-135): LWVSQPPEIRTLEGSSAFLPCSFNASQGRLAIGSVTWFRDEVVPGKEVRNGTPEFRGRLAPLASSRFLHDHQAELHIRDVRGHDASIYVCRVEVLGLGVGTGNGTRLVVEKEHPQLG
substance,measurement,value
pp65 (from UniProt P06725),Kd,10 nM
